Numbering of substitutions follows the chain as printed. Names may count otherwise.
Target: T1, PACT C213F, mammalian two-hybrid fusion (human, UniProt O75569 1-313, C213F)
T1 sequence (looked up): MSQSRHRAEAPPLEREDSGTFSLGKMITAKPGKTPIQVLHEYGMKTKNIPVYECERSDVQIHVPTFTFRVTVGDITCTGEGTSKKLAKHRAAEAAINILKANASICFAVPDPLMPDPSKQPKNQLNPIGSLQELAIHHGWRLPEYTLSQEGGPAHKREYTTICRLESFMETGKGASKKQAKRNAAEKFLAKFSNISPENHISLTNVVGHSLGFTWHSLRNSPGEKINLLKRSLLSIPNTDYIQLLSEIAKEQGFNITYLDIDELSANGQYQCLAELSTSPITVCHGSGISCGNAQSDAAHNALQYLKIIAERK
Assay: two-hybrid

fold over wt PACT-wt PACT interaction (luciferase reporter): ~9 fold
B1: PACT C77S, mammalian two-hybrid fusion (natural protein, human, UniProt O75569 1-313, looked up)
chain: T1 sequence (looked up) with C77S, F213C

— publication PMC12949589 (Neurobiology of disease, 2020)
